Paper PMC10863849, “A kinesin-13 family kinesin in Trypanosoma brucei regulates cytokinesis and cytoskeleton morphogenesis by promoting microtubule bundling” (PLOS Pathogens, 2024)

What was measured:
Assay in all cases: native gel or EMSA; blue native gel electrophoresis (NativePAGE Novex 3-12% Bis-Tris), 225 ng purified recombinant protein in BRB80-DTT buffer plus 5% glycerol, silver-stained; oligomer size read from band mobility
[1] = target: GST
[2] = target: GST-fused TbSpef1 (full-length TbSpef1 with N-terminal GST) (T. brucei)
[3] = target: KIN13-5 CC-deletion mutant (a.a. 1-642), hexahistidine-tagged (T. brucei)
[4] = target: KIN13-5 SAM domain-deletion mutant (a.a. 71-719), hexahistidine-tagged (T. brucei)
[5] = target: motor domain of KIN13-5 (a.a. 170-536), hexahistidine-tagged (T. brucei)
[6] = target: recombinant hexahistidine-tagged KIN13-1 (T. brucei)
[7] = target: recombinant hexahistidine-tagged full-length KIN13-5 (a.a. 1-719) (T. brucei)
[8] = target: the molecule itself

GST (natural protein)
stoichiometry N [1]: 2

GST-fused TbSpef1 (full-length TbSpef1 with N-terminal GST) (natural protein)
stoichiometry N [2]: 4

KIN13-5 CC-deletion mutant (a.a. 1-642), hexahistidine-tagged (domain or fragment)
stoichiometry N [3]: 2

KIN13-5 SAM domain-deletion mutant (a.a. 71-719), hexahistidine-tagged (domain or fragment)
stoichiometry N [4]: 4

motor domain of KIN13-5 (a.a. 170-536), hexahistidine-tagged (domain or fragment)
stoichiometry N [5]: 4

recombinant hexahistidine-tagged KIN13-1 (natural protein)
stoichiometry N [6]: 2

recombinant hexahistidine-tagged full-length KIN13-5 (a.a. 1-719) (natural protein)
stoichiometry N [7]: 8

B1: recombinant hexahistidine-tagged KIN-G (natural protein)
chain: MAKPLSGKAAPKNISVFLRVRPPVPRELKGGTFNNLVCDPSDPQRVTITRGGSARKGTKSFLFNRVFDPECTQQTIYNEVARGAVDAAFDGQHGVLFVYGQTGSGKTFTISNNDPEKPGVLQQSLRDIWDRFQADTEYDYSCTVSYVQLYNEMLTDLLDPQGGRVRIQLGPEGRGDVVLVTEASGASIERKVESYEDCLKYFYEGMDRKEMTSTKMNNTSSRSHTVFNFNLTRSAKVKTVDLSSAKANNEPVIALQGRLVVCDLAGSERASRTNAEGKTLDEATHINGSLLVLGKVVAALTESGSQHAPFRESKLTRILQYSLLGNGNTSIVVNCSPCDDSTEETLGAIMFGQRAIQIKQDAKRHEILDYKALYYQLLADLDSKNDRTLETALSEERTAYEDRIRVLEERIKILTSENDMLRRESSQLGGTGPVSGTSTASGAAAAAVAMGGDDANDWRSLTMKMRRAIEKLDADLKRTDKERVELAQFLALEKNKVNVLAQKLRAESLKHIMENKELTQRVTELSIDNAKLKGTDYISFQPSAACEDALPLSLDSPRRGTPSSGLSQSINVGDAYLQEQLDKANRQLRVLNEERVELIVYQMMASKAIRLLHAEKTSLANHLEKLKA
stoichiometry N [8]: ~4
